Measured values reported in patent publication US20250051821.

B1: IFF21344 (protein)
chain: KLDKPIIQPNFPGGGLASLGQGLLNNLSPTQSTSDNWGAGWIPADCKSLVQGAGLSPFDVTPFNIHYTDCSQTWTFCRHKDSPLSQTDIIDLFGRVPVRMRDFIRHYVFIPGATSAGSSGDNTLMVGNVDITVFLHEIGHSLDSHAFDPSYGVPFSTSNVWISNYNLDSAVTDSYAQTSQQENFAQETVVSVYDKVVPGGIGTIQPNWQAIFHQYATLQGYIGNTIIPGGTCVNRLTDSQPVTMGNSAKFRRGLGPKPTVSLSPDVKEIKPIPMSDSITMTTFDEFGKANGTYVIHL
B2: IFF21345 (protein)
chain: KLDKPIIQPNFPGGGLASLGQGLLNNLSPTQSTSDNWGAGWIPADCKSLVQGAGLSPFDVTPFNIHYTDCSQTWTFCRHKDSPLSQTDIIDLFGRVPVRMRDFIRHYVFIPGATSAGSSGDNTLMVGNVDITVFLHEIGHSLDSHAFDPSYGAPFSNSNIWISNYNLDSAVTDSYAQTSQQENFAQETVVSVYDKVVPGGIGTIQPNWQAIFHQYATLQGYIGDTIIPGGTCVNRLTDSQPVTMGNSAKFRRGLGPKPTVSLSPDVKEIKPIPMSDSITMTTFDEFGKANGTYVIHL
B3: IFF21366 (protein)
chain: QNLNKPVLFSDGLSPHVDSVFFQHLTPTQSTWDKWGWGWIPQACLSVVQGTQFSPYDIEVYNVHYTDCASAVVMCRHNQAQMSIINMIDAFGRIPIHDRQWTQHILALPAGGCSAGTGGAVTTFYGPCYIPSVFVHELTHTLDAFVNDKTGSTGAVHVYSTTSSYLNSVNQDSCVPDGYANTSPQEDYAQTSVLALYEKVNPGGLDPIGPWRCLVNAKNNLDSIIGQELTPGGSCTHRWADSAIVCMGPAAGCTSSKRGFEGRRGLKPVGPKPNPANKKGDPLVLDLLPDLASVVNAKITDFSHLSSNHTAGIEATIRINAWNKAAGKETVPVPKA
B4: IFF21347 (protein)
chain: KLDKPVIQPNFPGGGLASLGQGLLDNLKPTQSTSDVWGAGWIPADCKSLVQGAGLSPNDITPFNIHYTDCSQTWTFCRHKDSPLSQTDIIDLFGRVPVRMRDYIRHYVFIPGNKSAGSSGDNTLMVGDVDITVFLHEIGHSLDSHAFDPSYGVPFSTGNVWISNYNQDSAVTDDYAQSSQQENFAQETVVSVYDKNVPGGIGNIQPNWQAIFHQYATLEGYIGDTIIPGGTCVNRLTDSQPVTMSNSAKFRRNLGPKPTVSLSPDVKEIKAIPMADSIKMTSFDEHGKPNGTYVIQL
B5: IFF21346 (protein)
chain: NLDKPVIQPNFPGGGLASLGQGLLDNLKPTQSTSDVWGAGWIPADCKSLVQGAGLSPNDITPFNIHYTDCSQTWTFCRHKDSPLSQTDIIDLFGRVPVRMRDYIRHYVFIPGNKSAGSSGDNTLMVGDVDITVFLHEIGHSLDSHAFDPSYGVPFSTGNVWISNYNQDSAVTDSYAQSSQQENFAQETVVSVYDKNVPGGIGNIQPNWQAIFHQYATLEGYIGDTIIPGGTCVNRLTDSQPVTMSNSAKFRRTLGPKPTVSLSPDVKEIKPIPMADSIKMTSFDEHGKPNGTYVINL
B6: IFF21358 (protein)
chain: GNPDKPEVNPHIPYDRLENDLRNNLHPTQSTWDYWGAGWIPQGCKDLANTYHLNPADFTIFNVHYTDCSASWTFCRHKNAGASEIDMIDIFGRLPVRMRSYLRHLVATPGLNDGAAAWTWSSGDCVVESAPNLATLVHEVSHSLDWHALPQYQQPFSSSSIWQDNYNQDSATPTGYGRTNWMENFAETGMVGVYDKAVPGGIGNIEPNWNAIFHQYATYQGYLGDKIIAGGSCANRFDDTPPVAMSNSAKFKITSAKPETGIDFAGKNITQIIPSKEFEGLYIKG
B7: IFF21370 (protein)
chain: DDTPPFKPVISPAFDFYGTLEDGLRANLAPTQSTWDQWGEGWIPDDCKWYAEYYGYAANEFEVFNVKYTDCDEAWIMCRHKQATVSQTGMIDLFGRLPLGMREYVKHVVMAPETKANTVASSYRGTIAFDQDYFSIYNLVHETGHCMDGTAALDVFPDGISSSSIWQDNYNQDSAVVRDYARSSWVENFAETGTVAVYDKVVPGGIGPIQPNWEQIYHQYATYNGYLSDIITPGAKDKCTQRRENSETVAMGASSRIMRSSPPDTSFKSDVKVMPAGANDEFFFEHSRDH
B8: IFF21374 (protein)
chain: QRLNKPALTPNLDYLEQGNIDNLHPTHSTWDKWGPGWIPADCKSIAQNEGKNPDDFEIYNVHYDDCSDAWVFCRHKDSNVDLVTTIDIFGRLPVKMRSWVRHVITIPGDSWAYNSNGNIAFFGTTSSSMDVAIHETGHSLDLLGAYWGKTFSDSSTWLDNYNQDPNVPDEYAQTNQVENVAQNTVVGVYDKVVPGGFGSVQPNWHNIFHQYATLQWGAGDQIIPGGTCDRHLQNSETVPTGNSALAFNAVNRPDTSLKGNYSNIVTDFKEFSTRGNCRI

How the values were obtained:
IFF07399 = target: T1, IFF07399
T1 chain: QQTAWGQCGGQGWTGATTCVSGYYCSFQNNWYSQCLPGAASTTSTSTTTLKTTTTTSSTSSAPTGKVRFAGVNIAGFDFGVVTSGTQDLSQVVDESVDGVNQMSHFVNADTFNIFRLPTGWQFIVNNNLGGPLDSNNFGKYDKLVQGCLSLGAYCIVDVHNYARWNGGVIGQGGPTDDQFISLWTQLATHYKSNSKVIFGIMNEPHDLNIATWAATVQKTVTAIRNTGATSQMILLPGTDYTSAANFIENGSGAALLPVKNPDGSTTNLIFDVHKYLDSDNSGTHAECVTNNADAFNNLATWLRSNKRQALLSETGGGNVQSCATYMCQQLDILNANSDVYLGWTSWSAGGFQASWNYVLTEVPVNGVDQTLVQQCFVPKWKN

IFF05588 = target: T2, IFF05588
T2 chain: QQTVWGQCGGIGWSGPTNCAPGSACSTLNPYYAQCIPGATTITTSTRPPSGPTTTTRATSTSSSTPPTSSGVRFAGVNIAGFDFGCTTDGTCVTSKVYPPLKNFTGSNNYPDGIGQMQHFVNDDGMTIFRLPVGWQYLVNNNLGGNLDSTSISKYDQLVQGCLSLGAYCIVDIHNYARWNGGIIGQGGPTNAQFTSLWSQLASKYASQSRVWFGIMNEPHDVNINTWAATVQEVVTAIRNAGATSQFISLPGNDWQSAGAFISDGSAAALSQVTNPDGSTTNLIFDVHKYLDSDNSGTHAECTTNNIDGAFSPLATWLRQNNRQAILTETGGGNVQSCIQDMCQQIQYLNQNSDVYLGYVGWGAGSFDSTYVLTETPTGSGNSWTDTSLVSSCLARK

Row | Protein | Gel mobility change (SDS-PAGE) (IFF07399) | Relative late peak area (centered, scaled, averaged over 5, 10 and 15 min) (IFF05588) | Relative late peak area (centered, scaled, averaged over doses, 24 h; sample diluted 10-fold) (IFF05588) | Relative late peak area (centered, scaled, averaged over doses, 24 h; sample diluted 2-fold) (IFF05588) | Relative late peak area (reverse phase chromatography, 24 h) (IFF05588) | Relative late peak area (centered, scaled, averaged over doses, 24 h; sample diluted 1-fold) (IFF05588) | modification of IFF05588 (reverse phase chromatography, 5 to 15 min) (IFF05588)
1 | B1 | yes | 1.36 | 0.79 |  |  |  | 
2 | B2 |  | 1.82 | 1.24 |  |  |  | 
3 | B3 | yes | 0.34 |  | 1.02 |  |  | 
4 | B4 |  | 1.74 | 1.14 |  | 0.59 |  | 
5 | B5 |  | 0.52 |  | 1.07 |  |  | 
6 | B6 | yes | -1.04 |  |  |  | -1.46 | All samples containing proteins related to IFF05497 except seven (IFF21355, IFF21358, IFF21356, IFF21361, IFF21370, IFF21357 and IFF21353) are able to modify IFF05588 under these reaction conditions
7 | B7 |  | -1.05 |  |  |  |  | All samples containing proteins related to IFF05497 except seven (IFF21355, IFF21358, IFF21356, IFF21361, IFF21370, IFF21357 and IFF21353) are able to modify IFF05588 under these reaction conditions
8 | B8 | yes |  |  |  | 0.51 |  | 
